Publication PMC1929070

Target: GST-XNRL (Xenopus laevis)
Experiment: pull-down; Glutathione-Sepharose-bound GST-XNRL (or GST alone) incubated with affinity purified MYC fusion proteins in binding buffer (0.1% Triton X-100, 50 mM HEPES pH 7.5, 150 mM NaCl, 1% glycerol, 1.5 mM MgCl2, 5 mM EGTA) overnight at 4°C, washed three times; anti-MYC Western blot, bands quantified by Image J (retained/input, normalised to MYC-XOTX2); two independent experiments

MYC-XOTX5b (natural protein)
fold binding relative to MYC-XOTX2 (retained/input ratio): 2.4 fold
